Results as given in IntAct's records for PubMed 25042851.

B1: Ubiquitin-binding protein CUE5 (Saccharomyces cerevisiae), Q08412 (parent)
chain: MEEKEGIKDSSLLEKSNVPESINEDISKTTDVDLNSDGKKDNDTSAKDGTPKVEEKVNKSSGIDEDEVVTPAEDAKEEEEEHPPLPARRKSEEEPSKENPILQELKDAFPNLEEKYIKAVIIASQGVLSPAFNALLFLSDPESGKDIELPTQPVRKNPEAPARRRQTQLEQDELLARQLDEQFNSSHSRRRNRDRATRSMHEQRRRRHNPNEREQHHEDSEEEDSWSQFVEKDLPELTDRAGRSLQDTANKVSNWISDAYRRNFASGNEQNDNQHGHQDQQEWEPEIVDLSQGGKNSRPQQPERRRFNSFGVQVGDDSLESHGITLHNEDGFEDDEDVPPQLPTRTKSGESTGKVVAETTYIDTPDTETKKKWQPLPPEPLDTTPTKVNAVSRNKKNPDEDEFLINSDDEM
B2: Ubiquitin-binding protein CUE5 (Saccharomyces cerevisiae), Q08412 (parent)
chain: B1 chain
partner: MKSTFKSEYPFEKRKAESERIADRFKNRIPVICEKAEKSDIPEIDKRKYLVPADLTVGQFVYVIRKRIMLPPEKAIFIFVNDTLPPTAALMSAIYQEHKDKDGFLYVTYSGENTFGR

Variants of: B1
Conditions: with hd_human HTT

effect of a mutation on the interaction	Variant
disrupting interaction strength	L135A;L136A

Variants of: B2
Conditions: with atg8_yeast ATG8, P38182

effect of a mutation on the interaction	Variant
decreasing interaction strength	W373A
disrupting interaction strength	W373A;Q374A;P375A;L376A
decreasing interaction strength	L376A
